Measurements taken from article doi:10.1101/2020.10.21.348805 (bioRxiv, 2020).

Molecular target: T1, GST-OsDMI3 (rice (Oryza sativa), UniProt Q6AVM3 1-516)
T1 sequence (looked up): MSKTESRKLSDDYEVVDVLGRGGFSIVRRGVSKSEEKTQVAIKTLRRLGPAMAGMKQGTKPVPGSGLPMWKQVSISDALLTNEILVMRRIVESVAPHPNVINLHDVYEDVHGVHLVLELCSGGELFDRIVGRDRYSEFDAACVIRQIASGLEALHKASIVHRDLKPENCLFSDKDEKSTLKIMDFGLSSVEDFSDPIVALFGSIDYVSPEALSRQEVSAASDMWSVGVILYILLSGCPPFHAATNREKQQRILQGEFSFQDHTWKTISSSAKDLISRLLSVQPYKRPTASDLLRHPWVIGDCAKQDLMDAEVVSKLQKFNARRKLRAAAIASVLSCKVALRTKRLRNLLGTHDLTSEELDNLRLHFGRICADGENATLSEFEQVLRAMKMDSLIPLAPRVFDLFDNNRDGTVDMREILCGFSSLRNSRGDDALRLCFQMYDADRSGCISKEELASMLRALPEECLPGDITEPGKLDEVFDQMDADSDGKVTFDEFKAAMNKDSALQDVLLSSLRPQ
Assay: pull-down

- binding result: binds
B1: His-OsMKK6 (enzyme, rice (Oryza sativa), UniProt Q5QN75 1-355, looked up)
chain: MRGKKPHKELKLSVPAQETPVDKFLTASGTFKDGELRLNQRGLQLISEETADEPQSTNLKVEDVQLSMDDLEMIQVIGKGSGGIVQLVRHKWVGTLYALKGIQMNIQEAVRKQIVQELKINQATQNAHIVLCHQSFYHNGVIYLVLEYMDRGSLADIIKQVKTILEPYLAVLCKQVLEGLLYLHHERHVIHRDIKPSNLLVNRKGEVKITDFGVSAVLASSMGQRDTFVGTYNYMAPERISGSSYDYKSDIWSLGLVILECAIGRFPYIPSEGEGWLSFYELLEAIVDQPPPSAPADQFSPEFCAFISSCIQKDPAERMSASELLNHPFIKKFEDKDLDLRILVESLEPPMNISE
